The record followed here is publication PMC314469, “Protein Interaction Networks by Proteome Peptide Scanning” (PLoS Biology, 2004).

Assay [1] addresses T1, amphyphisin SH3 (AMPH_HUMAN), P49418.
T1 chain: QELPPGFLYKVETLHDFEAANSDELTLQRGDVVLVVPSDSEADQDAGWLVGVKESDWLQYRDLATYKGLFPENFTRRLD
Briefly: SPOT array.

In assay [2] the target is endophilin SH3 (SH3G2_HUMAN), Q99962. Kind of assay: SPOT array.

Turning to VKLKIKRPYGRKSQ [O60281 820-833], the values for the normalised SPOT signal, Boehringer light units (BLU); mean over the file's lines of this peptide in assay [1] and in assay [2] were 30.3 and 32, respectively.
The like results for VMARLSRPERPDLV [Q9HCS7 3-16] were, in that order, 1410 and 1160.
Turning to VGTLPSKPPFRFGQ [O60318 21-35], the normalised SPOT signal, Boehringer light units (BLU); mean over the file's lines of this peptide in assay [1] worked out at 169; in assay [2], 498.
For VHLKLRRPVTVPAG [Q9BT99 240-253], in that order: 28 and 64.9.
The like results for VKPGLRRPPASPAL [Q05215 182-195] were, in that order, 32.8 and 34.9.
For SGVRFHRPYRLLMH [Q9NT61 332-345], in that order: 1490 and 200.
For the molecule SISKPERPMKFLRE [P31321 38-51], the normalised SPOT signal, Boehringer light units (BLU); mean over the file's lines of this peptide turned out to be 609 in assay [1] and 8910 in assay [2].
For VLPPPPRPPQRRSR [BAC05199 62-76], in that order: 23100 and 21900.
The like results for VLDFPRRPPWSYEM [Q96CT5 125-139] were, in that order, 53.9 and 397.
Consider VLALPGKPPFLTQL [P05771 392-406], for which the results for the normalised SPOT signal, Boehringer light units (BLU); mean over the file's lines of this peptide in assay [1] and in assay [2] were 57.3 and 474, respectively.
With VGKAFIRPFREHHI [Q9GZT0 109-122], the normalised SPOT signal, Boehringer light units (BLU); mean over the file's lines of this peptide was 11700 in assay [1] and 390 in assay [2].
For VHGDIFRPPRKGML [Q99805 351-364], in that order: 4010 and 97.6.
As to VKRRPGRPRKSPLQ [Q9NR48 1846-1859], the results for the normalised SPOT signal, Boehringer light units (BLU); mean over the file's lines of this peptide in assay [1] and in assay [2] were 167 and 107, respectively.
Take VGDVLRRPSKDEPL [Q14571 2500-2513]: the normalised SPOT signal, Boehringer light units (BLU); mean over the file's lines of this peptide in assay [1] was 26; in assay [2], 115.
For VKKIPKKPPAPDPF [Q9UQN5 1344-1358], in that order: 56.8 and 2740.
On to VGIQLRRPLFQKVT [P21709 133-146], for which the normalised SPOT signal, Boehringer light units (BLU); mean over the file's lines of this peptide is 36.6 in assay [1] and 77.8 in assay [2].
For the molecule VLAEIPRPLKRRGS [Q9Y290 36-49], the normalised SPOT signal, Boehringer light units (BLU); mean over the file's lines of this peptide in assay [1] amounted to 138; in assay [2] it was 205.
Turning to VNRGPKRPKVLQRG [Q9UDR8 470-483], the normalised SPOT signal, Boehringer light units (BLU); mean over the file's lines of this peptide came to 9 in assay [1] and 142 in assay [2].
As for VLLPPPRPTRKRSL [Q9P2L7 767-780], the figures for the normalised SPOT signal, Boehringer light units (BLU); mean over the file's lines of this peptide in assay [1] and in assay [2] were 8360 and 7360, respectively.
The like results for VLPKFPRPVRTQEQ [Q92543 889-902] were, in that order, 475 and 303.
Turning to VNEGPPKPPTELEP [AAH32298 448-462], the normalised SPOT signal, Boehringer light units (BLU); mean over the file's lines of this peptide in assay [1] worked out at 19.8; in assay [2] it was 3.4.
The like results for VLTALRRPARSSWH [Q8WW71 300-313] were, in that order, 1860 and 395.
Take VNIVPKKPPLLDRP [Q96NB9 30-44]: the results for the normalised SPOT signal, Boehringer light units (BLU); mean over the file's lines of this peptide in assay [1] and in assay [2] were 34.8 and 114, respectively.
On to VKIPPKRPPRKHIV [Q8WVK0 107-121], for which the normalised SPOT signal, Boehringer light units (BLU); mean over the file's lines of this peptide in assay [1] came out at 17500; in assay [2], 14900.
For VMQSLRRPSSSGSS [O60269 443-456], in that order: 45.5 and 1190.
For VLAELPRPRRPPLQ [Q9NSY0 101-114], in that order: 596 and 244.
For the molecule VLLKLRRPVVGSSE [Q14596 255-268], the results for the normalised SPOT signal, Boehringer light units (BLU); mean over the file's lines of this peptide in assay [1] and in assay [2] were 32.8 and 233, respectively.
Turning to VNVVFRRPLRPADP [Q96FY0 68-81], the figures for the normalised SPOT signal, Boehringer light units (BLU); mean over the file's lines of this peptide in assay [1] and in assay [2] were 768 and 266, respectively.
Consider VMASLRRPKRIIIR [P78527 3728-3741], for which the values for the normalised SPOT signal, Boehringer light units (BLU); mean over the file's lines of this peptide in assay [1] and in assay [2] were 743 and 177, respectively.
The like results for SKKGFRRPSEKNQH [P17010 781-794] were, in that order, 33.1 and 32.
The like results for VGTELLRPLRGLLS [Q9NX26 97-110] were, in that order, 320 and 112.
On to VLQHLRRPVALQLD [Q9HC29 785-798], for which the results for the normalised SPOT signal, Boehringer light units (BLU); mean over the file's lines of this peptide in assay [1] and in assay [2] were 43.5 and 58.9, respectively.
For SKAYPKRPLLGLVL [Q9GZR7 380-393], in that order: 12.5 and 385.
For VKLLIRRPESFGPA [Q15413 2218-2231], in that order: 40.2 and 144.
Consider VLGVLRRPLEAPPE [Q03169 136-149], for which the normalised SPOT signal, Boehringer light units (BLU); mean over the file's lines of this peptide stood at 1.1 in assay [1] and 5.5 in assay [2].
The like results for VNRPLVRPQKRLSS [Q9BWX5 222-235] were, in that order, 253 and 6270.
For VNLKLRRPSFRDDI [O00467 301-314], in that order: 60.6 and 60.4.
The like results for VKMQLRRPSDQEVS [Q04864 259-272] were, in that order, 81.1 and 382.
